The data set deals with the molecule itself. As to the kind of experiment: SEC. (In gel filtration, larger molecules generally elute earlier.)

B1: Mzt1-His6 (natural protein)
chain: MSESTKETIEVLYEIGTLLGTELDKTTLSLCISLCENNVHPEAIAQIIREIRMAQEQTVDTEPS
For B1, the “stoichiometry N” value was approximately 12.

As a reminder, the stoichiometry N is the number of molecules, sites or subunits per partner or assembly.

(Values after PMC3814152 (Molecular Biology of the Cell, 2013).)
